This note sets out measurements from patent publication US20250049970A1, “DLL3 TARGETING PEPTIDES AND CONSTRUCTS THEREOF” (MARIANA ONCOLOGY INC., priority 2023, published 2025).

*1 amine or outer side, *2 acyl side, *3 side chain or, on linkers, in order; H or OH if unused. Bridges are numbered along the chain shown (N, C = ends). [ ]: non-standard residue; d: D form. The star is where a group is joined. Ala(piperidin-4-yl) = O=C([C@H](CC1CCN([*:3])CC1)N[*:1])[*:2]; DOTA = O=C(O)CN1CCN(CC(=O)O)CCN(CC(=O)*)CCN(CC(=O)O)CC1; 2Nal = N[C@@H](Cc1ccc2ccccc2c1)C(=O)O; NMetBuAla = CN[C@@H](CC(C)(C)C)C(=O)O; tBuAla = CC(C)(C)C[C@H](N)C(=O)O; Chg = N[C@H](C(=O)O)C1CCCCC1; Tle = CC(C)(C)[C@H](N)C(=O)O

Test [1] concerns the target T1, DLL3 on CT26.DLL3 cells (Homo sapiens (Human), UniProt Q9NYJ7 27-618).
T1 construct: CT26.DLL3 are engineered cells to express DLL3
T1 sequence: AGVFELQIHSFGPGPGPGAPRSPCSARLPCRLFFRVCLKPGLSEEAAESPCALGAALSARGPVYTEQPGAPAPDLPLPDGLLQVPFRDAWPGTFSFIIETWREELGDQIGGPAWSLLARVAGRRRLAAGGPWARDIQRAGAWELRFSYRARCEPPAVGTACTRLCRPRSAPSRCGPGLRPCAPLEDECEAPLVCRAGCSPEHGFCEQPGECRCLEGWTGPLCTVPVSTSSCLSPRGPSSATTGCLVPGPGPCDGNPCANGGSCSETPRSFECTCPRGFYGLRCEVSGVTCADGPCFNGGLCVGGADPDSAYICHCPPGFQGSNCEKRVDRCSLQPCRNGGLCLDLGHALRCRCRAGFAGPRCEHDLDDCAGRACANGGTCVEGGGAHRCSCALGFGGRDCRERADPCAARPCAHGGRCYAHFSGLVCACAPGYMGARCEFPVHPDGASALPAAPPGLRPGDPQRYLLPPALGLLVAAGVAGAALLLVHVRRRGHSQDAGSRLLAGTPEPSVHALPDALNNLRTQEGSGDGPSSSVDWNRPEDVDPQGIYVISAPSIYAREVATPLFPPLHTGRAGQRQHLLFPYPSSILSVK
Put plainly: [177Lu]Lu-labelled peptide on CT26.DLL3 cells, 1 h 37 C, gamma counter; A = %<=25. The protocol: Adherent cell studies: The cells were cultured in appropriate culture media (20 mL) in tissue culture treated T150 flasks at 37° C. and 5% C02. Adherent cells were detached (60-70% confluent) using 5 mL Versene at 37° C. for 3 minutes. After confirming the viability using countess and count of detached cells using Trypan blue, the cells were centrifuged at 4° C. for 5 minutes (1,000 rpm). The cell pellet obtained was washed once with PBS and resuspended in 1% PBSA to obtain the desired cell concentration (5-25 million cells/mL).
Total uptake: Cells were incubated with 300 μL (0.8 μCi) of the incubation buffer (containing radiolabeled peptide [¹⁷⁷Lu]Lu-test peptide) for 1 hour at 37° C. (Table 10). Post incubation, the cells were pelleted and washed 2 times using cold PBS+1% BSA. The supernatant and washes were combined and counted together as “unbound fraction” in a gamma counter. The cells were then resuspended in 300 μL of 1% PBS+1% BSA and counted in the gamma counter as “bound fraction”.

In test [2] the target is T2, DLL3 on SHP-77 cells (human, UniProt Q9NYJ7 27-618).
T2 construct: SHP-77 cells are human-derived, non-engineered SCLC cells
T2 sequence: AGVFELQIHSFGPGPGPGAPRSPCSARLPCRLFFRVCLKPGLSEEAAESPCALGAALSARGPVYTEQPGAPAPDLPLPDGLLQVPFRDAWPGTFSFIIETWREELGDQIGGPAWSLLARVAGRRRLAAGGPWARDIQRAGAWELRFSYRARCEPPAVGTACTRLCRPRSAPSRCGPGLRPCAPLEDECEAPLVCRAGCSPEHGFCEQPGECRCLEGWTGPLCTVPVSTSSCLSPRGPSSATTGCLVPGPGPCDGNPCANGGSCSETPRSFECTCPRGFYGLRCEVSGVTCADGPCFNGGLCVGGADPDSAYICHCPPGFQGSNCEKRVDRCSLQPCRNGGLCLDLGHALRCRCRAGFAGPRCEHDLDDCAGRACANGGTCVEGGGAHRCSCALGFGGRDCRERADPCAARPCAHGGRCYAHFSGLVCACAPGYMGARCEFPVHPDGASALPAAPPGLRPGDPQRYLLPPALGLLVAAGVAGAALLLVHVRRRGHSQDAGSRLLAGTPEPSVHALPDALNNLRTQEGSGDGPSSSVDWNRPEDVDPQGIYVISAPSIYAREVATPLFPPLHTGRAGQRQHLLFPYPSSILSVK
Put plainly: [177Lu]Lu-labelled peptide on SHP-77 cells, 1 h 37 C, gamma counter; C = %>50.

Take Ac-WT[tBuAla]CNN[2Nal]K(DOTA)DCWP-NH2 (disulfide 4-10) [Cpd No. 316]: the “% Binding” value in test [1] is ≤ 25%.

Ac-WT[Chg]CNN[2Nal]K(DOTA)DCWP-NH2 (disulfide 4-10) [Cpd No. 318]: in test [1], the “% Binding” value is ≤ 25%.

Turning to Ac-WT[NMetBuAla]C[Ala(piperidin-4-yl)]N[2Nal]K(DOTA)DCWP-NH2 (bridge 4-10; not fully specified (bridges)) [Cpd No. 153], the % Binding in test [2] is > 50%.

B1: Cpd No. 315 (peptide)
peptide: Ac-WT[Tle]CNN[2Nal]K(DOTA)DCWP-NH2
modifications: disulfide 4-10
SMILES: CC(=O)N[C@@H](Cc1c[nH]c2ccccc12)C(=O)N[C@H](C(=O)N[C@H](C(=O)N[C@H]1CSSC[C@@H](C(=O)N[C@@H](Cc2c[nH]c3ccccc23)C(=O)N2CCC[C@H]2C(N)=O)NC(=O)[C@H](CC(=O)O)NC(=O)[C@H](CCCCNC(=O)CN2CCN(CC(=O)O)CCN(CC(=O)O)CCN(CC(=O)O)CC2)NC(=O)[C@H](Cc2ccc3ccccc3c2)NC(=O)[C@H](CC(N)=O)NC(=O)[C@H](CC(N)=O)NC1=O)C(C)(C)C)[C@@H](C)O
For B1, in test [1], the “% Binding” value is ≤ 25%.
